As usually defined, the IC50 is the midpoint of a concentration-inhibition curve. Usually Kd stands for a measure of binding affinity in units of concentration.

Our source for the IC50 and Kd values is the Immune Epitope Database (IEDB).

Holding throughout (conditions): source organism: Influenza A virus (A/Puerto Rico/8/1934(H1N1))
One assay deals with HLA-B*07:02. The assay is described as follows: IEDB peptide-MHC binding, purified MHC/competitive/radioactivity; ≥ and ≤ were set here for values at or beyond the usual limits of such assays.
In a further assay the target is HLA-A*02:01. Described as above.
In assay [1] the target is HLA-A*68:01. The assay is described as follows: IEDB peptide-MHC binding, purified MHC/competitive/radioactivity; filed as Kd, often an IC50 or EC50 that approximates it; ≥ and ≤ were set here for values at or beyond the usual limits of such assays.
The target of another assay is HLA-A*31:01. The assay is described as follows: IEDB peptide-MHC binding, purified MHC/competitive/radioactivity; ≥ and ≤ were set here for values at or beyond the usual limits of such assays.
A further assay deals with HLA-A*03:01. Described as above.
For another assay, the target named is HLA-A*11:01. The description is as above.
For assay [2], the target named is HLA-A*33:01. The assay is described as follows: IEDB peptide-MHC binding, purified MHC/competitive/radioactivity; filed as Kd, often an IC50 or EC50 that approximates it; ≥ and ≤ were set here for values at or beyond the usual limits of such assays.
Assay [3] deals with HLA-A*68:01. The assay is described as follows: IEDB peptide-MHC binding, purified MHC/competitive/radioactivity; ≥ and ≤ were set here for values at or beyond the usual limits of such assays.
Assay [4] has as its target HLA-A*33:01. The assay is described as above.

With GPALSINEL, the IC50 in the assay with HLA-B*07:02 came out at 119 nM.

Turning to LMDALKLSI, the IC50 with HLA-A*02:01 was determined as 40 nM. Regarding GMGWLTIGI, the IC50 with HLA-A*02:01 was determined as 133 nM. Turning to FLWHVRKRV, the IC50 in the assay with HLA-A*02:01 came to 204 nM. IPKQKVAGPL: the concentration for half-maximal inhibition (IC50) in the assay with HLA-B*07:02 was 42.4 nM.

Take NPRMFLAMI: in the assay with HLA-B*07:02, the IC50 worked out at 10.1 nM. For GIAPLQLGK, in the assay with HLA-A*68:01 [1], the Kd was 1180 nM. The IC50 with HLA-A*31:01 is 281 nM; in the assay with HLA-A*03:01 it was 18 nM; in the assay with HLA-A*11:01, 30 nM.

Take MLSTVLGVSI: the IC50 in the assay with HLA-A*02:01 came out at 252 nM.

FPNEVGARIL: the IC50 in the assay with HLA-B*07:02 amounted to 365 nM. Consider FPSSSYRRPV, for which the IC50 in the assay with HLA-B*07:02 stood at 20.9 nM.

For KLESMGIYQI, in the assay with HLA-A*02:01, the IC50 was 434 nM. On the same count and under the same terms, for RMQFSSFTV the value was 28 nM. Regarding NIQFTAVGK, the IC50 in the assay with HLA-A*11:01 was found to be 182 nM. Consider RTLDFHDSNVK, for which the Kd in the assay with HLA-A*33:01 [2] worked out at 6.3 µM. In addition, the IC50 in the assay with HLA-A*68:01 [3] turned out to be 2290 nM; with HLA-A*31:01, 1500 nM; with HLA-A*03:01 it was 141 nM; in the assay with HLA-A*11:01 it was 50 nM. Turning to SPYNSRFESV, in the assay with HLA-B*07:02, the IC50 was 41.4 nM. As for CPKYVRSAKL, the IC50 with HLA-B*07:02 is 344 nM. Still for that read-out and setting: the value for TPLGAINSSL was 34.9 nM. On to SLLTEVETYV, for which the IC50 in the assay with HLA-A*02:01 came to 38 nM. Turning to CLLQSLQQI, the IC50 with HLA-A*02:01 came to 159 nM.

Regarding ITNKVNSVIEK, the IC50 in the assay with HLA-A*11:01 was found to be 90 nM. As to GMFNMLSTV, in the assay with HLA-A*02:01, the IC50 stood at 28 nM. For the sequence APPKQSRMQF, the IC50 with HLA-B*07:02 is 24 nM. For NLYNIRNLHI, in the assay with HLA-A*02:01, the IC50 is 61 nM. Regarding SPGMMMGMF, in the assay with HLA-B*07:02, the IC50 came to 137 nM. As to SPKGVEESSI, the IC50 with HLA-B*07:02 came to 215 nM. On the same count and under the same terms, the value for LPSLPGHTA was 41 nM. On to LLTEVETPI, for which the IC50 in the assay with HLA-A*02:01 was determined as 24 nM.

For the sequence STDTVDTVLEK, the IC50 with HLA-A*11:01 was 90 nM.

For SLPFQNIHPV, the IC50 with HLA-A*02:01 was 96 nM.

For YPKLKNSYV, the IC50 in the assay with HLA-B*07:02 stood at 176 nM. As for KTRPILSPLTK, the IC50 in the assay with HLA-A*11:01 amounted to 120 nM. As for RVLSFIKGTK, the IC50 in the assay with HLA-A*33:01 [4] came out at 1320 nM; in the assay with HLA-A*68:01 [3] it was 471 nM; with HLA-A*31:01, 333 nM; with HLA-A*03:01 it was 13.8 nM; in the assay with HLA-A*11:01 it was 72 nM.

As for WMMAMKYPI, the IC50 in the assay with HLA-A*02:01 is 72 nM. For RPWVSFDQNL, the IC50 with HLA-B*07:02 amounted to 397 nM. Same read-out and setting: the value for LPRRSGAAGA was 76.3 nM; that for NPALRMKWM was 59.5 nM. On to GPDNGAVAVL, for which, in the assay with HLA-B*07:02, the IC50 stood at 498 nM. As to TMVMELVRMIK, the IC50 in the assay with HLA-A*31:01 turned out to be 1290 nM; in the assay with HLA-A*03:01 it was 124 nM; with HLA-A*11:01 it was 194 nM.

In the case of KMNIQFTAV, the IC50 with HLA-A*02:01 was found to be 150 nM.

For the sequence WILDRLFFK, the IC50 with HLA-A*11:01 was 7.6 nM.

With VLLVSLGAI, the IC50 with HLA-A*02:01 was found to be 290 nM. Still for that read-out and setting: the value for SMIEAESSV was 160 nM. Turning to GIHHPSNSK, the IC50 with HLA-A*11:01 worked out at 429 nM. Still for that read-out and setting: the value for CIYRRFKYFLK was 231 nM. As to LPACVYGPAV, the IC50 with HLA-B*07:02 is 220 nM. Consider SVRNGTYDYPK, for which the IC50 in the assay with HLA-A*11:01 was determined as 43 nM. Consider ALKMTMASV, for which, in the assay with HLA-A*02:01, the IC50 is 225 nM. ILWILDRLFFK: the IC50 in the assay with HLA-A*11:01 is 21 nM. The same measure, in the same setting: the value for RMNYYWTLLK was 2.6 nM.

Consider LPVRSWSYIV, for which the IC50 with HLA-B*07:02 stood at 207 nM. As to SIIPSGPLK, the IC50 with HLA-A*68:01 [3] stood at 108 nM; with HLA-A*31:01, 4290 nM; with HLA-A*03:01, 14 nM.

Consider LILRGSVAHK, for which the IC50 in the assay with HLA-A*11:01 is 188 nM.

As for GPPCSQRSKF, the 50% inhibitory concentration (IC50) with HLA-B*07:02 was 270 nM.

Consider AVGKEFNKLEK, for which the IC50 in the assay with HLA-A*11:01 came out at 130 nM. For APSPYNSRF, the IC50 with HLA-B*07:02 came out at 19.2 nM. GTHPSSSAGLK: in the assay with HLA-A*11:01, the IC50 is 94 nM. As to VPASRYLTDM, in the assay with HLA-B*07:02, the IC50 is 13.6 nM.

As for GPVHFRNQV, in the assay with HLA-B*07:02, the IC50 turned out to be 71.4 nM. As to RPCFWVELI, the IC50 with HLA-B*07:02 turned out to be 67.1 nM.

Regarding LLLEVEQEI, in the assay with HLA-A*02:01, the IC50 was found to be 213 nM.
